Measured values reported in US8431111B2, “Peptide imaging agents” (GE Healthcare Limited, priority 2007, dated 2013).
Where a SMILES comes first, the peptide text is derived from it. Bridges are numbered along the chain shown (N, C = ends). The star is where a group is joined. X1 = CC1=CC(C)(C)N(CCCS(=O)(=O)O)c2cc3c(cc21)/C(=C/C=C/C1=[N+](CCCS(=O)(=O)O)c2ccc(S(=O)(=O)[O-])cc2C1(C)CCCC(=O)*)C=C(C(C)(C)C)O3

Assay: Limited acute dose toxicity study in male rats
Assay type: in vivo, rat
Procedure: A limited acute dose toxicity study was conducted to investigate the tolerance of Compound 6 at 100 times the preclinical imaging dose (50 nmol/kg body weight). The compound was injected intravenously in male rats, and the animals were sacrificed at 1, 14, 21 and 28 days post injection (p.i.). At necropsy, the major organs were inspected for gross pathology, and the kidneys were taken into neutral buffered formalin for subsequent histomorphological evaluation. A weak blue colouration of the skin and a moderate blue colouration of the urine were observed immediately after injection, which disappeared within 1 day p.i. […] The other minor changes seen were incidental and common in young adult laboratory rats. Strong fluorescence staining of blood vessels in the kidney was observed on day 1 p.i.

CC(=O)N[C@@H](C)C(=O)NCC(=O)N[C@@H](CO)C(=O)N[C@H]1CSSC[C@@H](C(=O)N[C@@H](Cc2ccc(O)cc2)C(=O)N[C@@H](CCC(=O)O)C(=O)N[C@H](C(=O)N[C@@H](CCC(=O)O)C(=O)NCC(=O)N[C@H](C(=O)NCC(=O)NCC(=O)NCC(=O)N[C@@H](CCCCNC(=O)CCCC2(C)C(/C=C/C=C3\C=C(C(C)(C)C)Oc4cc5c(cc43)C(C)=CC(C)(C)N5CCCS(=O)(=O)O)=[N+](CCCS(=O)(=O)O)c3ccc(S(=O)(=O)[O-])cc32)C(N)=O)[C@@H](C)O)[C@@H](C)O)NC(=O)[C@H](Cc2c[nH]c3ccccc23)NC(=O)[C@@H]2CSSC[C@H](NC(=O)[C@H](Cc3ccc(O)cc3)NC1=O)C(=O)N[C@@H](CO)C(=O)NCC(=O)N1CCC[C@H]1C(=O)N1CCC[C@H]1C(=O)N[C@@H](CCCNC(=N)N)C(=O)N[C@@H](Cc1ccccc1)C(=O)N[C@@H](CCC(=O)O)C(=O)N2 (stereo partly drawn) [Compound 6] (Ac-AGSCYCSGPPRFECWCYETEGTGGGK(X1)-NH2; disulfide 4-16, 6-14)
Tolerance of single intravenous administration (100 times the anticipated clinical dose): well tolerated and without any drug substance related adverse effects
Gross appearance of the kidneys at necropsy (day 1 p.i.): diffusely green
Time until blue colouration of skin and urine disappeared (i.v., weak blue colouration of skin, moderate of urine, immediately after injection): ≤ 1 day p.i.
